Test results taken from article PMC9482650, “Quantitative fragmentomics allow affinity mapping of interactomes” (Nature Communications, 2022).

Legend:
Assay in all cases: holdup assay
Parameters in all cases: key: below the threshold = too weak to quantify, mostly under pKd 3.1 to 4
Details in all cases: plain residues with an end cap or a label only (N-terminal biotin on a linker: ado-ado)
[1] = biological target: T1, APBA2_1, Q99767
T1 sequence (Q99767 563-664, limits assumed, looked up): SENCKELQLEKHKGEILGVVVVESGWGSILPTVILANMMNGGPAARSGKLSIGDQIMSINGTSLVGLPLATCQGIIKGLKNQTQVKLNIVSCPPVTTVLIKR

[2] = biological target: T2, APBA3_1, O96018
T2 sequence (O96018 389-490, limits assumed, looked up): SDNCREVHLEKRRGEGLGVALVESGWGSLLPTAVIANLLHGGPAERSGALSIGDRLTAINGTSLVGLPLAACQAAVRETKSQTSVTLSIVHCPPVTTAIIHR

[3] = biological target: T3, ARHGEF11, O15085
T3 sequence (O15085 42-136, limits assumed, looked up): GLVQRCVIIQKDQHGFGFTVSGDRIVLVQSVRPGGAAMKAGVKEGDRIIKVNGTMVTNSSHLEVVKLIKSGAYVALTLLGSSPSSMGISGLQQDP

[4] = biological target: ARHGEF12, Q9NZN5-2
[5] = biological target: T4, CARD11, Q9BXL7
T4 sequence (Q9BXL7 662-765, limits assumed, looked up): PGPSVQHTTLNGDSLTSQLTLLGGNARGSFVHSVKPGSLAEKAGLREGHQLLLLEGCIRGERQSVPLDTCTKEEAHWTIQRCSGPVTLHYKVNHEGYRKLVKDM

[6] = biological target: CASK, O14936
[7] = biological target: DLG5_1, Q8TDM6
[8] = biological target: T5, DVL3, Q92997
T5 sequence (Q92997 244-331, limits assumed, looked up): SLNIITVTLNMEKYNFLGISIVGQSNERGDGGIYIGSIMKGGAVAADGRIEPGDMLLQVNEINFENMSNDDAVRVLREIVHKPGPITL

[9] = biological target: T6, FRMPD1, Q5SYB0
T6 sequence (Q5SYB0 52-145, limits assumed, looked up): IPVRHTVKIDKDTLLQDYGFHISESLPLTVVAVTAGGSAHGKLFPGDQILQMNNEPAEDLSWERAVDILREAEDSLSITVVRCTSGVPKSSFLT

[10] = biological target: T7, GRIP1_2, Q9Y3R0
T7 sequence (Q9Y3R0 145-248, limits assumed, looked up): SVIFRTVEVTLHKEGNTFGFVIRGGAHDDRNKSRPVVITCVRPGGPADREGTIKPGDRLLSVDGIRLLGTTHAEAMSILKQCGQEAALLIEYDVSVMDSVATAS

[11] = biological target: GRIP2_3, Q9C0E4
[12] = biological target: GRIP2_6, Q9C0E4
[13] = biological target: HTRA2, O43464
[14] = biological target: IL16_1, Q14005
[15] = biological target: Inadl_6, Q8NI35
[16] = biological target: MAGI2_6, Q86UL8
[17] = biological target: T8, MPP6, Q9NZW5
T8 sequence (Q9NZW5 125-219, limits assumed, looked up): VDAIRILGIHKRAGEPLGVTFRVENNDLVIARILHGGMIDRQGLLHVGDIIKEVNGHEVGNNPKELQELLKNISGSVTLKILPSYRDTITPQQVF

[18] = biological target: T9, NHERF3_1, Q5T2W1
T9 sequence (Q5T2W1 4-100, limits assumed, looked up): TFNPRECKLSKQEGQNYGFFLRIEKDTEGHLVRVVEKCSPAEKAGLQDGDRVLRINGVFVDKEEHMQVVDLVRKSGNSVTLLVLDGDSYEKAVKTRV

[19] = biological target: NHERF4_2, Q86UT5
[20] = biological target: NOS1, P29475
[21] = biological target: T10, PCLO, Q9Y6V0
T10 sequence (Q9Y6V0 4491-4600, limits assumed, looked up): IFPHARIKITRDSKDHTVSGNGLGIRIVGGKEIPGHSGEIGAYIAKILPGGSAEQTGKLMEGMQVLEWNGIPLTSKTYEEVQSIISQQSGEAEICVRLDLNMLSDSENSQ

[22] = biological target: PICK1, Q9NRD5
[23] = biological target: T11, SNTA1, Q13424
T11 sequence (Q13424 82-180, limits assumed, looked up): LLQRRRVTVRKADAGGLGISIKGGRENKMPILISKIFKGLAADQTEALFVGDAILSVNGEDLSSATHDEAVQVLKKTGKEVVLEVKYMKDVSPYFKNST

[24] = biological target: T12, TIAM2, Q8IVF5
T12 sequence (Q8IVF5 885-986, limits assumed, looked up): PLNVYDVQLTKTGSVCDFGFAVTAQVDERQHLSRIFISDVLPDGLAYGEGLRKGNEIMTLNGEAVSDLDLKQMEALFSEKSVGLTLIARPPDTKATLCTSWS

[25] = biological target: T13, TJP3_3, O95049
T13 sequence (O95049 375-456, limits assumed, looked up): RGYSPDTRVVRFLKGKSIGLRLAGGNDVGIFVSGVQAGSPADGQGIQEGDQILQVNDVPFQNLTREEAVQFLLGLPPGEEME

Sequence of ARHGEF12, Q9NZN5-2 (Q9NZN5 other isoform, or with tags, fused parts or gaps): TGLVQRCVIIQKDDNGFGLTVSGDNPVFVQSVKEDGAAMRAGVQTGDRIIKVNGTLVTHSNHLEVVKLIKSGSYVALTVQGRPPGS
Sequence of CASK, O14936 (O14936 487-570): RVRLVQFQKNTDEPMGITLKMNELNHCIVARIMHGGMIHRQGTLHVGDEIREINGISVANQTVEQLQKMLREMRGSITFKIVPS
Sequence of Inadl_6, Q8NI35 (Q8NI35 1058-1167): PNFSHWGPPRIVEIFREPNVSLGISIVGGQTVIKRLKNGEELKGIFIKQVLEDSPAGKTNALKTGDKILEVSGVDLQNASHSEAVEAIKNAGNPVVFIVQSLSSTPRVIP
Sequence of HTRA2, O43464 (O43464 355-458): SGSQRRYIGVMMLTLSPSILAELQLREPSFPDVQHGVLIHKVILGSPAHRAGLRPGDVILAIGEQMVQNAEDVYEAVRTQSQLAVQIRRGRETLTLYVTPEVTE
Sequence of IL16_1, Q14005 (Q14005 210-306): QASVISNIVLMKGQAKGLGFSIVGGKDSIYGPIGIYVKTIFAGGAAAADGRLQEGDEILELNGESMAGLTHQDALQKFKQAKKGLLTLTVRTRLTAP
Sequence of GRIP2_6, Q9C0E4 (Q9C0E4 648-740): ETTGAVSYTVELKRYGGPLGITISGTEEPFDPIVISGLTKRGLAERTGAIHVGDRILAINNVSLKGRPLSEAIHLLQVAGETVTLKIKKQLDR
Sequence of PICK1, Q9NRD5 (Q9NRD5 17-115): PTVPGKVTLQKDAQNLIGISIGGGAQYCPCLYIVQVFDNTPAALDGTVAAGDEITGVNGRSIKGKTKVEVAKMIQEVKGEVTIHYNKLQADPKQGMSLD
Sequence of NOS1, P29475 (P29475 9-101): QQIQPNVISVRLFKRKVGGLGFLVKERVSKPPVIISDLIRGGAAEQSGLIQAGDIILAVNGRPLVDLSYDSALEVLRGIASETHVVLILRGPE
Sequence of MAGI2_6, Q86UL8 (Q86UL8 1141-1229): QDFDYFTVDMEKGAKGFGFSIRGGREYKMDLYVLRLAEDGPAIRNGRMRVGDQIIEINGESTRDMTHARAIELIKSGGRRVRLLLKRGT
Sequence of NHERF4_2, Q86UT5 (Q86UT5 220-308): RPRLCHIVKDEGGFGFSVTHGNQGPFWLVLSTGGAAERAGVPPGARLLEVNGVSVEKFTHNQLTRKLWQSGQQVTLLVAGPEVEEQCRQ
Sequence of GRIP2_3, Q9C0E4 (Q9C0E4 238-339): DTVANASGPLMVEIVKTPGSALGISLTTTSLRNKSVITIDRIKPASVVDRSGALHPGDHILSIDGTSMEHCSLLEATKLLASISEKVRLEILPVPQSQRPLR
Sequence of DLG5_1, Q8TDM6 (Q8TDM6 617-713): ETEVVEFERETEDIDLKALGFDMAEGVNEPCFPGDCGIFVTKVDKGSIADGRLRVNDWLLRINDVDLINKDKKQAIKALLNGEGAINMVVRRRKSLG

Binder	pKd [1]	pKd [2]	pKd [3]	pKd [4]	pKd [5]	pKd [6]	pKd [7]	pKd [8]	pKd [9]	pKd [10]	pKd [11]	pKd [12]	pKd [13]	pKd [14]	pKd [15]	pKd [16]	pKd [17]	pKd [18]	pKd [19]	pKd [20]	further results
PLDSQQHTEV [FAT1, Q14517]	below the threshold	below the threshold	4.67	4.42	below the threshold	below the threshold	below the threshold	below the threshold	below the threshold	below the threshold	below the threshold	below the threshold	below the threshold	below the threshold	below the threshold	4.26	below the threshold	below the threshold	below the threshold	below the threshold	pKd [21]: below the threshold; pKd [22]: below the threshold; pKd [23]: 4.22; pKd [24]: below the threshold; pKd [25]: below the threshold
SRPTKGPTLL [PLEKHH2, Q8IVE3]	below the threshold	below the threshold	3.85	4.9	below the threshold	below the threshold	below the threshold	below the threshold	below the threshold	below the threshold	below the threshold	below the threshold	below the threshold	below the threshold	below the threshold	below the threshold	below the threshold	4.79	below the threshold	4.35	pKd [21]: below the threshold; pKd [22]: below the threshold; pKd [23]: below the threshold; pKd [24]: below the threshold; pKd [25]: below the threshold
